The values that follow come from the DeepSol protein solubility set.

This series is described as follows: soluble on expression in E. coli; label from the status in PepcDB or PDB records.
On to “MGHHHHHHSHMLYVRCGTVGSRMFLVYVSYLINTTIEEKEIVCKCHKDETVTIETVFPFDVAVKFVSTKFEHLERVYADIPFLLMTDLLSASPWALTIVSSELQLAPSMTTVDQLESQVDNVILQTGESASECFCLQCPSLGNIEGGVATGHYIISWKRTSAMENIPIITTVITLPHVIVESIPLHVNADLPSFGRVRESLPVKYHLQNKTDLVQDVEISVEPSDAFMFSGLKQIRLRILPGTEQEMLYNFYPLMAGYQQLPSLNINLLRFPNFTNQLLRRFIPTSIFVKPQGRLMDDTSIAAA”, for which the “soluble on expression in E. coli” value is on record as “not soluble”.

Consider “DFELLHKLGGGNYGDVHLASVKDCNFVCALKRLSIKKLADFDIATQLRREIEIAFNTRHKYLLRTYAYFFDETDIYLIMEPCSNGMLYTELNRVKCFAPPTAARYVAQLAEALLYLHQHHILHRDIKPENILLDHNNNIKLADFGWSVHDPDNRRKTSCGTPEYFPPEIVGRQAYDTSADLWCLGIFCYELLVGKTPFVGKDTDQICKNIHSMHFKIPENIPSEAKDLIANLLLRDGSRRLALHRVVNHQFLLKYYYLPNNL”, for which the “soluble on expression in E. coli” value is recorded as “soluble”.

For “MLENSKKLIMNFVLKYSKKKRQNSGINISEICKFFEHVPLSCAALGLATKKNFGGEICAFKERKIKNYCKIFEPKSALFQTPPPPLIVGVISGAH”, the “soluble on expression in E. coli” value is reported as “soluble”.

“MGSDKIHHHHHHVREVSKEKGKIDLVSGAASTPLTNDKCSPTGFHWTYDTYALANGTGNAVVKNGGKTWFFLTADYAFGHNLQAQTEKVVKANGGEVKGAVKHPFPNSDFSSFLLQAQASGAQIIGLANAGADTINAIKQAKEFGITQAGQQLAGLLVFITDIHSLGLETAQGMMLTTGFYWDMDDQTRAWSKRWSEKMGNGKMPSMVHAGTYSQVLHYLRAAAAAKTDEGIKVADEMRKLPINDFFAKNGKIRADGRMVHDMYLAQVKKPSESKGPWDYYKIVRTIPGDEAYQPLSESTCSLVKK”: the “soluble on expression in E. coli” value is “not soluble”.

Turning to “MSLKLQASNVTNKNDPKSINSRVFIGNLNTALVKKSDVETIFSKYGRVAGCSVHKGYAFVQYSNERHARAAVLGENGRVLAGQTLDINMAGEPKPDR”, the “soluble on expression in E. coli” value is given as “soluble”.

For “GMGNIYQITVEEKAEHQRTLSFEFSLHDDLFKLLEKVDGKMDMTPEQTQAFMVGLKLFGEVMMQQRKHPLFKEFSAPFRAFMMNLKKQ”, the “soluble on expression in E. coli” value is listed as “soluble”.

As to “MTTTLFSSRIIQSALDFDVYKVNMMSAVAALYPDAMVSYKFIVRSEEDLSELLPEVKAEVLKLQDVRFTEDEIAYMKRVAPYLKPEFVEALRHFRFNPQSDVSFHNKTMSDGSSQLRITINGLWKETILYETIIMSIVSEVRSRQRWSDIPFEQFQTVLEDKVRYLKAELERRNITNFKFADMSTRRRFSFQAQRTMLEYLSKELPQCLTGTSNYHLARELDLTPIGTVAHEWFMGHQALVNVRDSQKIALQRWQKMFNGALGIALTDTIGIDAFLKDFDEELSHAYVGVRHDSGCPFTWGEKMIAHYESLGIDPMTKTLVFTDGLNFEQALDICEHFQGRVQVSFGIGTSLANDMGNYVNDQGEAYQPLSIVIKMVTCNGSPVAKISDEPEKAMCEDIFFLMNLKRRFEQPLDLNECRKLIDRLESEGQNYLIDALEHHHHHH”, the “soluble on expression in E. coli” value is given as “soluble”.

Turning to “MENQPKLNSSKEVIAFLAERFPQCFSAEGEARPLKIGIFQDLVERVGGEMNLSKTQLRAALRLYTSSWRYLYGVKAGAIRVDLDGNPCGELEEQHIAHARQQLEEAKARVQAQRAAQQAKKREAAAAAGQQDEGVRRERKPRPQQPRRKEGAEQRKPRPVAAKAPREERLTPVSDVSVLTVGQALKVKAGNNAMDATVLEITKDGVRVQLTSGMSMIVRAEHLVF”, the “soluble on expression in E. coli” value is listed as “not soluble”.

Regarding “MGSDKIHHHHHHMERQARIIAFYATNENVGKSTLSIAMANELAHLGKKVLYVEADQVRPSFAVGTGLSHDSKNILELVRKENEYNLSQYICTKQDLLERKMNPRLMQKLHDKMDFLVFPSGYNLAQFPEIQNKELFVTTFIESLVDTEYDSIILSVPTELSEVLSYPILYQSDLVIHVLNGNPRGAIAIKRELQLLEEAKLTLPRMIHVLNMADEDYVEDIEKLSSQKIAVTIPYDRDRTSYEWGMQFGSPQINTKVHHIMEAAGLDIPTQHTSSMKKGLFGLRN”, the “soluble on expression in E. coli” value is on record as “not soluble”.

With “MGSDKIHHHHHHMHEHFMTPPPLSVTGKPAIRIGCAGWGIPPQHAALFPPGGGHLERYARLFDTVEIDSSFYRPHQHKTYVRWADTVPDSFRFWVKTPREITHQRRLLECEDSLLRFLEEISGLGYKLGGILVQLPPSLALDVPSAQAFFTLLRQHYAGVAACEPRHASWFSMQGEKLLQDFRLARVAADPAKFPTAGTPGGDTGFSYYRLHGAPEIYYSSYPEAYLRQLAHTLQASIGPAWCIFDNTARGGATANAWDIMRLLDKTMHQD”, the “soluble on expression in E. coli” value was “not soluble”.

Turning to “MGSDKIHHHHHHMSESAESVELIKLPVSQLTLGMFVSAIDKNDKGQLAIANAGQIKHKDAILKLAKSGIKFVWVDAERSAEHCGLKKKTTNDSQTDNRKAPVSRDKQQAQAKVMLTEAKDLIRKVLSETFEGKAIEVAPFEALADTMIESVMLDADALKCMSALRSKDAYLLEHSVNVAFLLVTFGKYLQLDRDMLRQMAVGGILHDIGKIKVDNKVLHKPGKLTPEEFEHMKLHQVYELEIMNETTGLSQISKDICLMHHEKLDGRGYPRGLKDDEIPRHGRMSCIVDIFDALTATRCYKEAMSPAAAFKILLSLTPFHLDQQLVYEFIRCIGIYPVGSLVELSDGRIGIVWASKDRDALHPIVKCFYSLKVKRYTDVAMVDLLKSELYIERGVSPSSLDIDPTPFY”, the “soluble on expression in E. coli” value is listed as “not soluble”.

For the sequence “GPGSMTRRNAMSDNTTSTSSVTPERYPFCIVWTDIPLVSWLFPFVGHVGICDSTGRIFDFEGSYCIGVDHMLFGNPVKYWDISAMYVPSSRFPPGGLLSGDVEERRRRETEEYDRALSGVTTRFRKTQTYNFFTNNCHSYVASVLEEMTNGPRRPWNMFWIAWGLAIHGRSLLKSPSSLPRYRRPLCDRRCTLGLTRSK”, the “soluble on expression in E. coli” value was “not soluble”.

For the sequence “MGSDKIHHHHHHMTDLIYNDPDFVQFYDIENQDGRADFDYCVRLARDGGSVLDLGCGTGQLAAEMAQGCNVTGVDPASAMLDVARRRTGGDKVDWVVADARTVRLGRRFDLVLLTGHVFQVFLTDEDQRAVLRTIAEHLGPGGRFIFDTRNPAVEAWLEWTPQRSERMVEHPSLGTVRAWYDADWDAASAVVTYSTFYEIPGGRPILGAESKIAFPKKQDLAGMLDDAGLLVEQWLGDWQGEPYADTSPEIIPIGRLR”, the “soluble on expression in E. coli” value is “not soluble”.

For the sequence “MRTLLITGPGGSGRTTVAAATALRASRTGTRTLVLSADRTDTLGAALGVPTGGAPVEAAPGLTAWRPDAADRFRADLTAFQDRAATALDFLGAARLDAEELTPLPGAEELALLRALRDAALSEAYDLLVVDLPPAPQALALLALPEELRRYLRRLLPPERQAARALRPVLGRLAGVPMPADWLYETAARWDVELAAVEAVVEDRATTVRLVAEPGPAGADAVRAAATGFALRAVRIDTLIANRLLPEEADDAWSAGLAAQQRKFLEEWRGEYRLHELPHLGHDPRGADDLAALAVPGVNDAPGPVEWSVADRLADDGVLVWHIPLPGAIRDELDLLRRGDELVVTAGQFRRIVPLPSALRRCTVAGAALREGELRIRFAPDPDLWPRERLEHHHHHH”, the “soluble on expression in E. coli” value is reported as “soluble”.

On to “MGSDKIHHHHHHVSATDTLDKTGTQTSAVRLGDLETPCLVLDADRMDRNIARLRDRIAGLGVTLRPHLKTAKSVEVARRVMATSEGPATVSTLKEAEFFADAGVRDIIYAVGIAPWKLAKVIELRKRGVDLAVVLDTVELAQAVAAASRESGMAIPALIEIDCDGHRSGVLPRDSERLLAIGKALVEGGELRGVLTHAGGSYAARGEEALRNAAEEERASVVNAAAILRDAGLPCPVVSVGSTPTAHHATDLTGVTEVRAGVFVFFDLVMTGIGICTVDDIAISVLATVIGHQREKGWILVDAGWMAMSQDRGTAKQVVNQGYGVVCKCDGTPYADLILADANQEHGIIMVRPGSDGTLPDLAIGDRVRILPNHACATGAQHRRYNVVHGTSDVVTGEWQRFGGW”, for which the “soluble on expression in E. coli” value was “not soluble”.

As to “MASPRANDAPIVLLHGFTGWGREEMLGFKYWGGVRGDIEQWLNDNGYRTYTLAVGPLSSNWDRACEAYAQLVGGTVDYGAAHAAKHGHARFGRTYPGLLPELKRGGRVHIIAHSQGGQTARMLVSLLENGSQEEREYAKAHNVSLSPLFEGGHHFVLSVTTIATPHDGTTLVNMVDFTDRFFDLQKAVLKAAAVASNVPYTSQVYDFKLDQWGLRRQPGESFDHYFERLKRSPVWTSTDTARYDLSIPGAEKLNQWVQASPNTYYLSFSTERTHRGALTGNYYPELGMNAFSAVVCAPFLGSYRNEALGIDDRWLENDGIVNTVSMNGPKRGSSDRIVPYDGTLKKGVWNDMGTYNVDHLEVIGVDPNPSFDIRAFYLRLAEQLASLRP”, the “soluble on expression in E. coli” value is “soluble”.

“EDDEDYGDLGGCPFLVAENKTGYPTIVACKQDCNGTTETAPNGTRCFSIGDEGLRRMTANLPYDCPLGQCSNGDCIPKETYEVCYRRNWRDKKNHHHHHH”: the “soluble on expression in E. coli” value is given as “soluble”.

For the sequence “MEEMLREIERILEWPRMLKATVISKGFSFDEKYKIELESGASYFIKVCDSSYFERKQEEYEYMQQLDSLHIPMPKLIHFISLTKFNKCVQVFEWIDGLDGEDNLRTLSTQTQYRAGKKAGEVIKKIHLVEKEDKSNSWEMSIWSKYERYLEALKEYEVDFFRLNTVIDFVGNHKDLLKNRPIVFLHDDFHPANIMIDQNEFRAVIDFARFDIGDPIHDFYKVALFTTNISKPFAVGQVHGYCGGEPDLHFWKLYSLYAAMIFPADIVWTNRSTPYLLDDMKERLNGILEDHNDFSSYIPKWYQSSEFNK”, the “soluble on expression in E. coli” value is “not soluble”.

As to “MSIIFAKLLLIILSYTHMKEKARNVYMVAGGVTKFAKASPEMDFRLRVKKAFDYAMNDAGLTLADIDGSVASYFSDHFQRQLMSGIMVQDYLGLVPKPSKRIEGGGATGGLAFQAGYEEIASGRMDTVAVYGFETMSHVNTWKGNEFIALASDTNFDYPIGGFYTGYYAMMAVRHMYEFGTTVEQLAKVSVKNHGNALHNPYAQSPMKLTVEDVRNAPMVSYPLTRLDVCAMSDGAAVAILASEDKAFEITDHPVLIKGIGTGTDSMRLADRPFGDVPLLPNEKPSDYKDLKYPGVHSFRAGRMAAKEAYEMAGITDPLNELDLIELHDAYTSSEIQTYEDLGLCKYGEGGQFIDEGKPELHGKIPVNPSGGLLAAGHPVGATGIMQAVFMFWQLQHTIKKHFHDDYLQVPNAKRGLIHSHAGTGTYVTVTIMEAAK”, the “soluble on expression in E. coli” value is listed as “not soluble”.

Regarding “MGSDKIHHHHHHMSTDFKKRNVFFSPPDMTETETRLVVEAIMSGWITTGPKTKEFEKKISAYVHTDKTVCLNSATAAMELALRLIGVGPEDEVIVPAYTYTASASVTQHVGCHLVMVDSNEENQQMDLQKLAEAITERTKVIVPVDLGGVVCEYDKILEILEQKKGLFRPTNELQKKIGRVIISSDCAHAFGSEWKGKMAGEIGDFSSFSFHAVKNLTTAEGGALTWHLPFGNEPIIMDIDTTIPVFEGETWNEFLYRKCQLFSLHGQNKDALAKTKLGSWEYDVIGPWYKCNMTDIMASLGLAQMERYDTMLQKRQKYVERFNEAFKELNVAVLDHKGAEHCSSHHLYIIRLLGKTREQVNDVITKMAERGIATNVHYKPLPMMTAYKTLGFDIKNFPNAYKMFENTMTLPLNTKMTEEDVEYVIENFVDIVKSL”, the “soluble on expression in E. coli” value is recorded as “not soluble”.

For “MVAWSIVDYGSGDEVPGADAALVLGAAAWGNKPSPVFRERINHAVKLYQSGKVRWIVFTGGTPEPGYPAEADVGREFAARQGVPMTAMLVENQSRTTWQNLSNARDLGNQFGIRSYLLVSDPLHMRRAVLMAGDLGLRAYPAPTQSSRFRTLASWSRFLARETWLYVGYRVFRQLSLEHHHHHH”, the “soluble on expression in E. coli” value was “not soluble”.
